Laboratory results reported in the supplement of paper PMC10724198.
± gives the standard deviation of the averaged measurements.

Tested on: Saccharomyces cerevisiae
Assay: protein stability index of tFT-peptide fusion (C-terminal peptide) (PSI (0-1 scale)); higher = more stable (slower turnover)
Settings: genetic background: wild type; temperature: 30 C
Method: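 Multiplexed protein stability (MPS) profiling in S. cerevisiae. Random 12-aa peptides (tFT-X12 library) are fused to the C-terminus of a sfGFP-mCherry tandem fluorescent timer, after mCherry and a GGGS linker. Cells are FACS-sorted into 8 mCherry/sfGFP bins and deep-sequenced. The protein stability index (PSI) is the read-weighted bin average, scaled from 0 (unstable) to 1 (stable). Only peptides with >10 reads are reported; cells were grown at 30 °C in SC-His with glucose.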
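Also: PSI is a weighted mean of sequencing reads over stability bins, variants kept only with over 10 reads, mCherry proximal and sfGFP distal, peptide attached via GGGS linker.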

Sequence	protein stability index
SFLVLRGSGGKW	0.713 ± 0.082
PTRPPSLPRIPP	0.669 ± 0.028
SPLFLPPPVPPP	0.599 ± 0.039
SRPLVPSPPSPV	0.663 ± 0.02
CFHIFRKSNMNN	0.726 ± 0.11
PSSPPTPLPPRS	0.663 ± 0.077
GEGSQTGSLIPL	0.71 ± 0.031
HPPPHPPFPPRF	0.73 ± 0.016
LLHPFPPLCRHP	0.716 ± 0.018
GWCVWGVFSTAL	0.631 ± 0.033
PHTLPPLPVSPT	0.67 ± 0.05
SFSFPFFFWGLL	0.592 ± 0.0061
KKKKKKKTKKKK	0.78 ± 0.034
PPPPRPPPVPPF	0.61 ± 0.048
KKIEKENKKEKF	0.611 ± 0.056
LTGAQPTDPNMR	0.697 ± 0.071
GGRGWEGRGGSG	0.684 ± 0.022
PPPFPPPPLFPL	0.714 ± 0.032
VKVWRTILRLLD	0.535 ± 0.0097
ICRGGYELLELG	0.68 ± 0.026
EKKKSKGRRKLM	0.705 ± 0.081
EVLQGNHHPRPE	0.716 ± 0.019
FFFLPILKSPSR	0.714 ± 0.058
NHFQYHSPVASE	0.688 ± 0.028
LPLVSLLCLLPR	0.668 ± 0.038

Sequence	protein stability index
ATQTGFGGGGPM	0.689 ± 0.013
NESSASKEKSNI	0.69 ± 0.038
ILGQLHKHFKTS	0.546 ± 0.046
VYLEWQFGIKEL	0.648 ± 0.052
KRLKRKSNLERE	0.69 ± 0.047
PTRPPAPGPGRH	0.744 ± 0.045
LEMTGGACGGGK	0.675 ± 0.029
PFRSPFSSSPTF	0.7772 ± 0.0077
NARMPPHIVAGI	0.64 ± 0.034
KKQKKKKKRNRK	0.654 ± 0.028
VVAVRLPNVRHY	0.655 ± 0.018
EWACGRAGLKVV	0.491 ± 0.018
PLGPRFLPLVLP	0.682 ± 0.021
IQNTERIKIQTK	0.6791 ± 0.0034
CLAIWSNLNECH	0.715 ± 0.034
SPLLRSRPPPPI	0.749 ± 0.016
SPPPNPRRPVPL	0.6916 ± 0.0023
PAPPPRPLPSPP	0.713 ± 0.2
SCFEFGALSSPI	0.753 ± 0.034
GRCWVMCSEGEK	0.64 ± 0.057
RQCSGMIMKDVG	0.73 ± 0.036
HPPPLVPSPSTQ	0.749 ± 0.067
EKCCVNSASSFG	0.646 ± 0.0098
PGQRSRGPPGRA	0.737 ± 0.076
DIKATRTYNHKV	0.68 ± 0.029

Sequence	protein stability index
TYGRPICFSFKR	0.701 ± 0.049
YSPAYDHLRPDH	0.7034 ± 0.0069
SHICSFLGICHA	0.576 ± 0.031
RGGGGGSVSFWW	0.676 ± 0.071
RGWWVLCGGGGG	0.57 ± 0.044
PPTPPLPPRLPP	0.686 ± 0.0098
EQHTKNDQNNEP	0.664 ± 0.028
SHSPPSPPLPPP	0.6773 ± 0.0042
VLRARQGVREPP	0.526 ± 0.01
VWVGSLWEHPTV	0.781 ± 0.17
WPLLLHLLHLLR	0.697 ± 0.12
PPPPPPPAPPPC	0.7243 ± 0.0033
VAKFYQVLMSEG	0.684 ± 0.014
GFWLVSCPWLLF	0.612 ± 0.14
PSRPPPTPPLPP	0.629 ± 0.14
FSSSASNSSWPY	0.721 ± 0.016
AGGGRGGGSLRV	0.669 ± 0.034
ILNKYYEQSMRT	0.68 ± 0.011
FRHPGSAGPPVA	0.713 ± 0.011
GKEWRGSGGMRR	0.646 ± 0.014
RRKVGVFTRRWV	0.691 ± 0.04
PTHCTPRRRTRR	0.676 ± 0.014
VFACVHPLASLT	0.681 ± 0.048
RVSIPALKEIAS	0.737 ± 0.036
LPPPHYPHHTAS	0.679 ± 0.052

Sequence	protein stability index
DRCLFRFNLWGG	0.7203 ± 0.0063
FRLYALAPHSPG	0.67 ± 0.027
EISKVRGAVDRK	0.689 ± 0.033
TEHLLTRGRRNT	0.64 ± 0.032
KKKRIRNEYKKR	0.68 ± 0.0071
RRGRGGSGGSAP	0.734 ± 0.053
GNVLIRFSCSDS	0.754 ± 0.05
VSRGESEVKAGG	0.673 ± 0.1
PSIKRSVKPFSP	0.857 ± 0.2
CWVNDGCPICGW	0.732 ± 0.072
RGGGGAWAGGVA	0.734 ± 0.019
GPSPPSPSPPPL	0.622 ± 0.0084
ERVQTRTTANRD	0.639 ± 0.059
FVFGSVLPGPTC	0.692 ± 0.0098
LGSAIQGFLILT	0.5996 ± 0.0017
GVCWVTAGLWAI	0.6098 ± 0.0021
KKNEKKNRKKKN	0.71 ± 0.022
VGLVVVRTMGPC	0.6463 ± 0.00079
KKKNKNENKKPQ	0.667 ± 0.021
SPGVFQQRHHTY	0.665 ± 0.087
RDQPPPLPFTRP	0.712 ± 0.1
FFVGAGATEGLG	0.735 ± 0.021
RVKGCYGPGSGI	0.685 ± 0.066
